Measurements: publication PMC8537947, “Improved Radiolytic Stability of a ^68Ga-labelled Collagelin Analogue for the Imaging of Fibrosis” (Pharmaceuticals, 2021)
Bridge positions count the residues as written; N and C are the ends. Square brackets hold non-standard residues; d marks the D form. Peptide text beside a SMILES is read from it. * marks the point of attachment. NOTA = O=C(O)CN1CCN(CC(=O)O)CCN(CC(=O)*)CC1; Nle = CCCC[C@H](N)C(=O)O; AEEA = NCCOCCOCC(=O)O

Test: in vivo
Design: species or system Sprague-Dawley rats
Conditions: Sprague-Dawley, rat, iv, total radioactivity
Description: Sixteen male (n = 10; 363.3 ± 19.6 g) and female (n = 6; 199.2 ± 5.5 g) Sprague–Dawley rats were used for ex vivo organ distribution of the [^68Ga]Ga-NO2A-[Nle13]-Col for the subsequent extrapolation and calculation of human dosimetry. The male and female animals were administered into the tail vein with, respectively, 2.3 ± 0.8 MBq and 1.4 ± 0.5 MBq, sacrificed at 5, 10, 30, 40, 60, and 120 min post administration, and the organs were harvested, weighted, and measured for their radioactivity content. Samples from the blood, heart, lung, liver, spleen, adrenal glands, kidneys, intestines with or without contents, muscle, testis, bone, brain, pancreas, urine bladder, and bone marrow were collected. To monitor radioactivity elimination and recovery, the radioactivity of the remaining carcass was also measured. The radioactivity measurements were corrected for decay and converted into standardized uptake values (SUVs, Table S2) according to Equation (2), wherein the radioactivity is expressed in MBq and the weight in grams:(2) SUV=Radioactivityorgan∗weightrat/Radioactivityinjected∗weightorgan

[1] = female, 1.4 MBq, SUV bladder (UB)
[2] = female, 1.4 MBq, SUV blood (BL)
[3] = female, 1.4 MBq, SUV brain (BR)
[4] = female, 1.4 MBq, SUV heart (HE)
[5] = female, 1.4 MBq, SUV liver (LI)
[6] = female, 1.4 MBq, SUV lungs (LU)
[7] = female, 1.4 MBq, SUV muscle (MU)
[8] = female, 1.4 MBq, SUV red bone marrow (BM)
[9] = female, 1.4 MBq, SUV spleen (SP)
[10] = female, SUV large intestine without content (INL-)
[11] = female, SUV small intestine with its content (INS+)

CCCC[C@@H]1NC(=O)[C@H](C(C)C)NC(=O)[C@H](CCCNC(=N)N)NC(=O)CNC(=O)[C@@H]2CCCN2C(=O)[C@@H](NC(=O)COCCOCCNC(=O)CN2CCN(CC(=O)O)CCN(CC(=O)O)CC2)CSSC[C@@H](C(=O)O)NC(=O)[C@@H]2CCCN2C(=O)CNC(=O)[C@H](CCC(=O)O)NC(=O)[C@H](CC(=O)O)NC(=O)[C@H](CC(=O)O)NC(=O)CNC(=O)[C@H](CC(C)C)NC(=O)[C@H](Cc2c[nH]cn2)NC(=O)[C@H](CC(C)C)NC(=O)CNC(=O)[C@H](Cc2c[nH]cn2)NC1=O [[^68Ga]Ga-NO2A-[Nle^13]-Col, [^68Ga]Ga-NOTA-PEG2-c[CPGRVNleHGLHLGDDEGPC], metal not drawn] ({NOTA-AEEA}-CPGRV[Nle]HGLHLGDDEGPC-OH; disulfide 1-18)
SUV at 2 h (SUV of adrenal glands, bone marrow and urinary bladder): < 0.25 SUV
SUV at 1 h (SUV of all vital organs): < 0.2 SUV
SUV at 2 h (SUV of the remainder of the organs): < 0.1 SUV
SUV at 2 h (both sexes, SUV of most of the organs): < 0.25 SUV
SUV at 5 min [1]: 4.88 SUV
SUV at 10 min [1]: 6.96 SUV
SUV at 0.5 h [1]: 5.83 SUV
SUV at 40 min [1]: 0.843 SUV
SUV at 1 h [1]: 1.08 SUV
SUV at 2 h [1]: 0.321 SUV
SUV at 10 min [2]: 1.42 SUV
SUV at 0.5 h [2]: 0.497 SUV
SUV at 40 min [2]: 0.432 SUV
SUV at 1 h [2]: 0.217 SUV
SUV at 2 h [2]: 0.0412 SUV
SUV at 5 min (female, 1.4 MBq, SUV bone (BO)): 0.391 SUV
SUV at 10 min (female, 1.4 MBq, SUV bone (BO)): 0.403 SUV
SUV at 0.5 h (female, 1.4 MBq, SUV bone (BO)): 0.179 SUV
SUV at 40 min (female, 1.4 MBq, SUV bone (BO)): 0.106 SUV
SUV at 1 h (female, 1.4 MBq, SUV bone (BO)): 0.064 SUV
SUV at 2 h (female, 1.4 MBq, SUV bone (BO)): 0.031 SUV
SUV at 5 min [3]: 0.073 SUV
SUV at 10 min [3]: 0.0964 SUV
SUV at 0.5 h [3]: 0.0189 SUV
SUV at 40 min [3]: 0.0174 SUV
SUV at 1 h [3]: 0.0149 SUV
SUV at 2 h [3]: 0.0062 SUV
SUV at 5 min [4]: 0.741 SUV
SUV at 10 min [4]: 0.68 SUV
SUV at 0.5 h [4]: 0.207 SUV
SUV at 40 min [4]: 0.18 SUV
SUV at 1 h [4]: 0.104 SUV
SUV at 2 h [4]: 0.026 SUV
SUV at 5 min [5]: 0.438 SUV
SUV at 10 min [5]: 0.452 SUV
SUV at 0.5 h [5]: 0.171 SUV
SUV at 40 min [5]: 0.147 SUV
SUV at 1 h [5]: 0.114 SUV
SUV at 2 h [5]: 0.0889 SUV
SUV at 5 min [6]: 1.12 SUV
SUV at 10 min [6]: 0.986 SUV
SUV at 0.5 h [6]: 0.385 SUV
SUV at 40 min [6]: 0.427 SUV
SUV at 1 h [6]: 0.276 SUV
SUV at 2 h [6]: 0.0631 SUV
SUV at 5 min [7]: 0.514 SUV
SUV at 10 min [7]: 0.295 SUV
SUV at 0.5 h [7]: 0.214 SUV
SUV at 40 min [7]: 0.0802 SUV
SUV at 1 h [7]: 0.0488 SUV
SUV at 2 h [7]: 0.0213 SUV
SUV at 2 h (female, 1.4 MBq, SUV ovarian (OV)): 0.124 SUV
SUV at 5 min [8]: 0.484 SUV
SUV at 10 min [8]: 0.443 SUV
SUV at 0.5 h [8]: 0.162 SUV
SUV at 40 min [8]: 0.769 SUV
SUV at 1 h [8]: 0.113 SUV
SUV at 2 h [8]: 0.343 SUV
SUV at 5 min [9]: 0.423 SUV
SUV at 10 min [9]: 0.354 SUV
SUV at 0.5 h [9]: 0.174 SUV
SUV at 40 min [9]: 0.135 SUV
SUV at 1 h [9]: 0.0938 SUV
SUV at 5 min (female, SUV adrenals (AD)): 0.724 SUV
SUV at 10 min (female, SUV adrenals (AD)): 1.29 SUV
SUV at 0.5 h (female, SUV adrenals (AD)): 0.0127 SUV
SUV at 40 min (female, SUV adrenals (AD)): 0.25 SUV
SUV at 1 h (female, SUV adrenals (AD)): 0.198 SUV
SUV at 2 h (female, SUV adrenals (AD)): 0.128 SUV
SUV at 5 min (female, SUV blood (BL)): 2.06 SUV
SUV at 5 min (female, SUV kidneys (KI)): 12.1 SUV
SUV at 10 min (female, SUV kidneys (KI)): 11.3 SUV
SUV at 0.5 h (female, SUV kidneys (KI)): 6.32 SUV
SUV at 40 min (female, SUV kidneys (KI)): 12.9 SUV
SUV at 1 h (female, SUV kidneys (KI)): 12.8 SUV
SUV at 2 h (female, SUV kidneys (KI)): 9.08 SUV
SUV at 5 min [10]: 0.569 SUV
SUV at 10 min [10]: 0.91 SUV
SUV at 0.5 h [10]: 0.193 SUV
SUV at 40 min [10]: 0.211 SUV
SUV at 1 h [10]: 0.103 SUV
SUV at 2 h [10]: 0.046 SUV
SUV at 5 min (female, SUV ovarian (OV)): 0.927 SUV
SUV at 10 min (female, SUV ovarian (OV)): 1.87 SUV
SUV at 0.5 h (female, SUV ovarian (OV)): 0.341 SUV
SUV at 40 min (female, SUV ovarian (OV)): 0.335 SUV
SUV at 1 h (female, SUV ovarian (OV)): 0.159 SUV
SUV at 5 min (female, SUV pancreas (PA)): 0.439 SUV
SUV at 10 min (female, SUV pancreas (PA)): 0.361 SUV
SUV at 0.5 h (female, SUV pancreas (PA)): 0.164 SUV
SUV at 40 min (female, SUV pancreas (PA)): 0.0609 SUV
SUV at 1 h (female, SUV pancreas (PA)): 0.0659 SUV
SUV at 2 h (female, SUV pancreas (PA)): 0.029 SUV
SUV at 5 min [11]: 0.436 SUV
SUV at 10 min [11]: 0.558 SUV
SUV at 0.5 h [11]: 0.277 SUV
SUV at 40 min [11]: 0.165 SUV
SUV at 1 h [11]: 0.129 SUV
SUV at 2 h [11]: 0.0343 SUV
